According to article doi:10.1101/589580 (bioRxiv, 2019):
Blank lines part the entries; values can stand above or below the binder they belong to. No end group written: not given here.

Assays:
FCS molecular brightness = target: the molecule itself; assay: FCS molecular brightness
[1] = target: full-length ZO1 with C-terminal mEGFP (UniProt Q07157 1-1748); assay: client partitioning into phase-separated droplets
full-length ZO1 with C-terminal mEGFP, sequence (Q07157 whole entry): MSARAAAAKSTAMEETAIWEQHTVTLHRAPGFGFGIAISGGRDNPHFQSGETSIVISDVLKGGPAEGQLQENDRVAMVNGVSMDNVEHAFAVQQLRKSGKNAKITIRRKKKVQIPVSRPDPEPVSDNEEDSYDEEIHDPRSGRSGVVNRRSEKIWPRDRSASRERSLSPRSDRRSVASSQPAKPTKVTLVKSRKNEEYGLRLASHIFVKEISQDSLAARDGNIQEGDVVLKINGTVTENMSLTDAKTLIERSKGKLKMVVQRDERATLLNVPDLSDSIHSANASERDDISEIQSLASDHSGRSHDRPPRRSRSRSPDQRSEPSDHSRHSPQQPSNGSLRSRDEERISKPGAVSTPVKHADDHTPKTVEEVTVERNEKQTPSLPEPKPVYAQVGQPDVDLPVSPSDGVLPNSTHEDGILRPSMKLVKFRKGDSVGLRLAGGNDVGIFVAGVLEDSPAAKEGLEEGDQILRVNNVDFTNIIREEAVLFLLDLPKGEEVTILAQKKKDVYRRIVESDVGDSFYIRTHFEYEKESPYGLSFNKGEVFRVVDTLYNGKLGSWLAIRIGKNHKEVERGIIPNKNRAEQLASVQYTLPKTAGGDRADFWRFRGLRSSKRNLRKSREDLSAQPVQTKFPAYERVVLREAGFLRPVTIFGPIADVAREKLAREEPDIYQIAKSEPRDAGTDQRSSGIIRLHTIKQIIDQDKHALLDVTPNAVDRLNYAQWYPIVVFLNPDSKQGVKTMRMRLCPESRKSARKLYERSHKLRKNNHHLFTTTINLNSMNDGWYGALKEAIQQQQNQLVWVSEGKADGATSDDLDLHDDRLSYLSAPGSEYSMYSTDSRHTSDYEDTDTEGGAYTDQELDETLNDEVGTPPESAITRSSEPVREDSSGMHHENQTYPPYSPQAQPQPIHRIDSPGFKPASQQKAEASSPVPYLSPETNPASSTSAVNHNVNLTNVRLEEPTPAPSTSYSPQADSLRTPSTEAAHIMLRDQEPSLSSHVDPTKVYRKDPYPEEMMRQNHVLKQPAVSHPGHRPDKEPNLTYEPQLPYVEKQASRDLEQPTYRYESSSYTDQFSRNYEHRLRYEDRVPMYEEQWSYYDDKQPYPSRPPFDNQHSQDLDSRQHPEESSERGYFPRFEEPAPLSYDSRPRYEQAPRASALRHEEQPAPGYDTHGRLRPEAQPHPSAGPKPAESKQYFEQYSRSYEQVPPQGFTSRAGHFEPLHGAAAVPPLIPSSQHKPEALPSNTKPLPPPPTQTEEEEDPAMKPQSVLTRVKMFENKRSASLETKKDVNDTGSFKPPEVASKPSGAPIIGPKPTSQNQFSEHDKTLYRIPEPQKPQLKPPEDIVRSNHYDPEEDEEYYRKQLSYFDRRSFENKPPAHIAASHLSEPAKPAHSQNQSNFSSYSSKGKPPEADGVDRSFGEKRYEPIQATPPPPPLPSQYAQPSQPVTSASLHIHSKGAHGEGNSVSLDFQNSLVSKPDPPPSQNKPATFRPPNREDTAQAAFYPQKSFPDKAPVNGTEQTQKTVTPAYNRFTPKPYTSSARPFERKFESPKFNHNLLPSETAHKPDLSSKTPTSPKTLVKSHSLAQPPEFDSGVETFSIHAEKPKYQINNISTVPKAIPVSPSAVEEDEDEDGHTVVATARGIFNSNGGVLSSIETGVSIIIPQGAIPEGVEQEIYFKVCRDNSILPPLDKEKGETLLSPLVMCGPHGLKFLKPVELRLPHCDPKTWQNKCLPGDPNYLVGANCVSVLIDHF

B1: endogenous ZO2 with N-terminal mNeonGreen (CRISPR knock-in, MDCK-II) (natural protein, dog (endogenous in MDCK-II), UniProt Q95168 1-1174, looked up)
chain: MEELIWEQYTVTLQKDSKRGFGIAVSGGRDNPHFENGETSIVISDVLPGGPADGLLQENDRVVMVNGTPMEDVLHSFAVQQLRKSGKIAAIVVKRPRKVQLAPPQGSLPVDEDDRAFEVMDEFDGRSARSGYSERSRRSSHGGRSRSWEDSPERGRPHERAWSQERERSRGRSLERGLDHDDDYRRPRERSRGRSLERGLDHDDDYGRPGERSHGMSTDRGYDRGYDRGYDRGYDRTYSPEAEYGRRTQPDARHAGSRSRSREHLRSRSPSPELRGRPDHAGQPDSDRPIGVLLMKSKANEEYGLRLGSQIFIKQMTRTALATKDGNLHEGDIILKINGTVTENMSLTDARKLIEKSRGKLQLVVLRDSKQTLINIPSLNDSDSEIEDISEIESNRSFSPEERRQQYSDYDYHSSNEKLKERPNSREDMQNRWSRMGATPTPFKSMGDIASVVGTENSKEPRYQEEPPAPQPKAAPRTFLRPSPEDEAIYGPNTKMVRFKKGDSVGLRLAGGNDVGIFVAGIQEGTSAEQEGLQEGDQILKVNTQDFRGLVREDAVLYLLEIPKGEMVTILAQSRADVYRDILACGRGDSFFIRSHFECEKETPQSLAFSRGEVFRVVDTLYDGKLGHWLAVRIGNELEKGLIPNKSRAEQMASVQNAQRDNAGDRADFWRMRGQRSGMKKNLRKSREDLTAAVSVSTKFPAYERVLLREAGFKRPVVLFGPIADIALEKLANELPDLFQTAKTEPKDAGSEKSSGVVRLNTVRQIIEQDKHALLDVTPKAVDLLNYTQWFPIVIFFNPDSRQGVKTMRQRLNPTSNKSSRKLYDQANKLKKTCAHLFTATINLNSANDSWFGSLKDTIQHQQGEAVWVSEGKMEGMDDDPEDRMSYLTAMGADYLSCDSRLISDFEDTDGEGGAYTDNELDEPAEEPLVSSITRSSEPVQHEESIRKPSPEPRAQMRRAASRDQLRDSSPPPAFKPEPPKAKTQNREESFDISRSHDYKSNPSAVAGNEVSGASTRSCPPPIAAKPSFGRSILKPSTPVPSPESEEVGEGSEEQEGAPKSVLGKVKIFEKMDHKARLQRMQELQEAQNARIEIAQKHPDIYAVPIKTHKPDPGLSQHTSSRPPEPQKGPSRLYQDPRGSYGSDAEEEEYRQQLSEHSKRGYYSQPSRYRDTEL
stoichiometry N (FCS molecular brightness): 1.5

partitioning (client fluorescence inside/outside ZO1 droplets) [1]: 28 fold
B2: afadin (natural protein, UniProt P55196 1-1824, looked up)
chain: MSAGGRDEERRKLADIIHHWNANRLDLFEISQPTEDLEFHGVMRFYFQDKAAGNFATKCIRVSSTATTQDVIETLAEKFRPDMRMLSSPKYSLYEVHVSGERRLDIDEKPLVVQLNWNKDDREGRFVLKNENDAIPPKKAQSNGPEKQEKEGVIQNFKRTLSKKEKKEKKKREKEALRQASDKDDRPFQGEDVENSRLAAEVYKDMPETSFTRTISNPEVVMKRRRQQKLEKRMQEFRSSDGRPDSGGTLRIYADSLKPNIPYKTILLSTTDPADFAVAEALEKYGLEKENPKDYCIARVMLPPGAQHSDEKGAKEIILDDDECPLQIFREWPSDKGILVFQLKRRPPDHIPKKTKKHLEGKTPKGKERADGSGYGSTLPPEKLPYLVELSPGRRNHFAYYNYHTYEDGSDSRDKPKLYRLQLSVTEVGTEKLDDNSIQLFGPGIQPHHCDLTNMDGVVTVTPRSMDAETYVEGQRISETTMLQSGMKVQFGASHVFKFVDPSQDHALAKRSVDGGLMVKGPRHKPGIVQETTFDLGGDIHSGTALPTSKSTTRLDSDRVSSASSTAERGMVKPMIRVEQQPDYRRQESRTQDASGPELILPASIEFRESSEDSFLSAIINYTNSSTVHFKLSPTYVLYMACRYVLSNQYRPDISPTERTHKVIAVVNKMVSMMEGVIQKQKNIAGALAFWMANASELLNFIKQDRDLSRITLDAQDVLAHLVQMAFKYLVHCLQSELNNYMPAFLDDPEENSLQRPKIDDVLHTLTGAMSLLRRCRVNAALTIQLFSQLFHFINMWLFNRLVTDPDSGLCSHYWGAIIRQQLGHIEAWAEKQGLELAADCHLSRIVQATTLLTMDKYAPDDIPNINSTCFKLNSLQLQALLQNYHCAPDEPFIPTDLIENVVTVAENTADELARSDGREVQLEEDPDLQLPFLLPEDGYSCDVVRNIPNGLQEFLDPLCQRGFCRLIPHTRSPGTWTIYFEGADYESHLLRENTELAQPLRKEPEIITVTLKKQNGMGLSIVAAKGAGQDKLGIYVKSVVKGGAADVDGRLAAGDQLLSVDGRSLVGLSQERAAELMTRTSSVVTLEVAKQGAIYHGLATLLNQPSPMMQRISDRRGSGKPRPKSEGFELYNNSTQNGSPESPQLPWAEYSEPKKLPGDDRLMKNRADHRSSPNVANQPPSPGGKSAYASGTTAKITSVSTGNLCTEEQTPPPRPEAYPIPTQTYTREYFTFPASKSQDRMAPPQNQWPNYEEKPHMHTDSNHSSIAIQRVTRSQEELREDKAYQLERHRIEAAMDRKSDSDMWINQSSSLDSSTSSQEHLNHSSKSVTPASTLTKSGPGRWKTPAAIPATPVAVSQPIRTDLPPPPPPPPVHYAGDFDGMSMDLPLPPPPSANQIGLPSAQVAAAERRKREEHQRWYEKEKARLEEERERKRREQERKLGQMRTQSLNPAPFSPLTAQQMKPEKPSTLQRPQETVIRELQPQQQPRTIERRDLQYITVSKEELSSGDSLSPDPWKRDAKEKLEKQQQMHIVDMLSKEIQELQSKPDRSAEESDRLRKLMLEWQFQKRLQESKQKDEDDEEEEDDDVDTMLIMQRLEAERRARLQDEERRRQQQLEEMRKREAEDRARQEEERRRQEEERTKRDAEEKRRQEEGYYSRLEAERRRQHDEAARRLLEPEAPGLCRPPLPRDYEPPSPSPAPGAPPPPPQRNASYLKTQVLSPDSLFTAKFVAYNEEEEEEDCSLAGPNSYPGSTGAAVGAHDACRDAKEKRSKSQDADSPGSSGAPENLTFKERQRLFSQGQDVSNKVKASRKLTELENELNTK

partitioning (client fluorescence inside/outside ZO1 droplets) [1]: 44 fold
Binder: SCPRKTTSYPTPRPYPKPAPSSGKDYV (also: CoA-DY647 on YBBR-tag, labelled with PPTase Sfp, tag not in given chain) [C-terminal tail of claudin-1]

partitioning (client fluorescence inside/outside ZO1 droplets) [1]: 25 fold
B3: cingulin (natural protein, UniProt Q9P2M7 1-1203, looked up)
chain: MEQAPNMAEPRGPVDHGVQIRFITEPVSGAEMGTLRRGGRRPAKDARASTYGVAVRVQGIAGQPFVVLNSGEKGGDSFGVQIKGANDQGASGALSSDLELPENPYSQVKGFPAPSQSSTSDEEPGAYWNGKLLRSHSQASLAGPGPVDPSNRSNSMLELAPKVASPGSTIDTAPLSSVDSLINKFDSQLGGQARGRTGRRTRMLPPEQRKRSKSLDSRLPRDTFEERERQSTNHWTSSTKYDNHVGTSKQPAQSQNLSPLSGFSRSRQTQDWVLQSFEEPRRSAQDPTMLQFKSTPDLLRDQQEAAPPGSVDHMKATIYGILREGSSESETSVRRKVSLVLEKMQPLVMVSSGSTKAVAGQGELTRKVEELQRKLDEEVKKRQKLEPSQVGLERQLEEKTEECSRLQELLERRKGEAQQSNKELQNMKRLLDQGEDLRHGLETQVMELQNKLKHVQGPEPAKEVLLKDLLETRELLEEVLEGKQRVEEQLRLRERELTALKGALKEEVASRDQEVEHVRQQYQRDTEQLRRSMQDATQDHAVLEAERQKMSALVRGLQRELEETSEETGHWQSMFQKNKEDLRATKQELLQLRMEKEEMEEELGEKIEVLQRELEQARASAGDTRQVEVLKKELLRTQEELKELQAERQSQEVAGRHRDRELEKQLAVLRVEADRGRELEEQNLQLQKTLQQLRQDCEEASKAKMVAEAEATVLGQRRAAVETTLRETQEENDEFRRRILGLEQQLKETRGLVDGGEAVEARLRDKLQRLEAEKQQLEEALNASQEEEGSLAAAKRALEARLEEAQRGLARLGQEQQTLNRALEEEGKQREVLRRGKAELEEQKRLLDRTVDRLNKELEKIGEDSKQALQQLQAQLEDYKEKARREVADAQRQAKDWASEAEKTSGGLSRLQDEIQRLRQALQASQAERDTARLDKELLAQRLQGLEQEAENKKRSQDDRARQLKGLEEKVSRLETELDEEKNTVELLTDRVNRGRDQVDQLRTELMQERSARQDLECDKISLERQNKDLKTRLASSEGFQKPSASLSQLESQNQLLQERLQAEEREKTVLQSTNRKLERKVKELSIQIEDERQHVNDQKDQLSLRVKALKRQVDEAEEEIERLDGLRKKAQREVEEQHEVNEQLQARIKSLEKDSWRKASRSAAESALKNEGLSSDEEFDSVYDPSSIASLLTESNLQTSSC

partitioning (client fluorescence inside/outside ZO1 droplets) [1]: 20 fold
B4: transcription factor ZONAB (natural protein)
chain: not shown
